According to patent US20220057408A1:

Target: CD3 (Homo sapiens (Human)) (UniProt P07766)
Experiment: IHC on tissue (human tonsil), 1ug/mL primary antibody, detected with Goat Anti-rabbit-HRP/DAB; 6 ROIs, 3 tissues, 95% CI for the mean; P=0.000 against H4K4-E

Question: How did the Staining Intensity by ImageJ (mean) turn out when “rabbit anti-CD3(SP162) antibody (unmodified)” was run?
Answer: 62
